What all share (settings): both partners purified
Assay [1] deals with T1, GST-tagged USP8 rhodanese domain (174-317) (human, UniProt P40818 174-317).
T1 construct: Ubiquitin carboxyl-terminal hydrolase 8 (USP8), human, rhodanese domain, residues 174-317; pETM33 vector, synthesized by GenScript; also called Rhod domain; source: E. coli BL21-Gold (DE3), purified (glutathione sepharose, eluted with reduced glutathione)
T1 sequence (looked up): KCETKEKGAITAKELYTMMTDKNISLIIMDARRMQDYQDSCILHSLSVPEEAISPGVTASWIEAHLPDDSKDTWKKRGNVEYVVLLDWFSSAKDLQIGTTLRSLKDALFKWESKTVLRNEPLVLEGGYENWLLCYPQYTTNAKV
The experiment in a line: peptide or protein array; SPOT array, cellulose-bound peptides; GST-tagged Rhodanese domain 150 µM in 5% skim milk in TBST overnight at 4 °C; detected with HRP-conjugated anti-GST antibody.

The target in assay [2] is T2, USP8 rhodanese domain (174-317), GST tag cleaved (human, UniProt P40818 174-317).
T2 construct: Ubiquitin carboxyl-terminal hydrolase 8 (USP8), human, rhodanese domain, residues 174-317; also called Rhod domain; source: E. coli BL21-Gold (DE3), purified (glutathione sepharose, GST cleaved on beads with HRV 3C protease)
T2 sequence (looked up): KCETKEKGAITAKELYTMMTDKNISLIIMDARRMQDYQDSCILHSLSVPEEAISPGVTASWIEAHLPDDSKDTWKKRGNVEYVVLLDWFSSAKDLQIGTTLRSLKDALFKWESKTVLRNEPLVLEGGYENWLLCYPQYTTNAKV
The assay is described as follows: fluorescence polarisation; competitive: 1.5 µM protein preincubated with 10 nM FITC-labeled peptide, displaced by increasing concentration of unlabeled peptide; 50 mM sodium phosphate pH 7.4, 1 mM DTT.

In assay [3] the target is T3, GST-tagged USP8 MIT domain (1-142) (human, UniProt P40818 1-142).
T3 construct: Ubiquitin carboxyl-terminal hydrolase 8 (USP8), human, MIT domain, residues 1-142; pETM33 vector, synthesized by GenScript; source: E. coli BL21-Gold (DE3), purified (glutathione sepharose, eluted with reduced glutathione)
T3 sequence (looked up): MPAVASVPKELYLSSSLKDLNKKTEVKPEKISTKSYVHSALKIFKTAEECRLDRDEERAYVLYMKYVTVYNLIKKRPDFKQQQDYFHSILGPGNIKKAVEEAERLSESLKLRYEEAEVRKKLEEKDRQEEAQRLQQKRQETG
The assay is described as follows: peptide or protein array; SPOT array, cellulose-bound peptides; GST-tagged MIT domain 100 µM in 5% skim milk in TBST overnight at 4 °C; detected with HRP-conjugated anti-GST antibody.

A further assay addresses T4, USP8 Rhod (174–317) (human, UniProt P40818 174-317).
T4 construct: Ubiquitin carboxyl-terminal hydrolase 8 (USP8), human, UniProt P40818, rhodanese domain, residues 174-317; Construct in the pETM33 vector, synthesized by GenScript; also called USP8_Rhodanese; USP8 rhodanese domain; source: E. coli BL21-Gold (DE3), purified (GSH sepharose)
T4 sequence (looked up): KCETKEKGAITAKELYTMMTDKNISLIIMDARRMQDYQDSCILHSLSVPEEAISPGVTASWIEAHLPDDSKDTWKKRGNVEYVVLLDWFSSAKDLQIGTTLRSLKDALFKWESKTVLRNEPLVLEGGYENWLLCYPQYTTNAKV
The experiment in a line: fluorescence polarisation; direct binding: constant concentration of FITC-labeled peptide, increasing concentration of the protein; 50 mM sodium phosphate buffer pH 7.4, 1 mM DTT; KD from a fit to a quadratic equation. (Polarisation of emitted light reports the rotation of a fluorescent probe.)

Ends that are not written are not given here. * marks the point of attachment. FITC = O=C1OC2(c3ccc(O)cc3Oc3cc(O)ccc32)c2ccc(NC(=S)*)cc21

B1: Tumour protein 63 608-622 peptide, cellulose-bound (SPOT array) (peptide, UniProt Q9H3D4 608-622, looked up)
peptide: HEFSSPSHLLRTPSS
notes: holds an SSPxxL[LM] motif; source: alanine scan: INTAVIS
As to B1, the binding result in assay [1] is given as “binds”.

B2: KIAA1614 568-583 peptide, synthetic (peptide)
peptide: GMERVLGGLSSPLRLL
notes: also called positive control; source: JPT Peptide Technologies; free, unlabelled for fluorescence polarisation (GeneCust, >95% purity)
As for B2, the affinity in assay [2], expressed as Kd, was 10 ± 2 µM.

B3: Keratin-85 41-55 peptide, cellulose-bound (SPOT array) (peptide, UniProt P78386 41-55, looked up)
peptide: GVSCYRGLTGFGSRS
notes: Keratin-85 (KRT85), residues 41-55; holds an Rx[LI]xG motif; also called KRT85_(41 − 55); source: bought: JPT Peptide Technologies, cellulose membrane
Turning to B3, the binding result in assay [1] is given as “binds”.

B4: DBP 116-131 peptide, cellulose-bound (SPOT array) (peptide)
peptide: YVDLDAFLLEHGLPPS
notes: also called positive control; source: array of predicted peptides: JPT Peptide Technologies
Turning to B4, the binding result in assay [3] is on record as “binds”.

B5: DNAJB6 118-130 peptide, cellulose-bound (SPOT array) (peptide, UniProt O75190 118-130, looked up)
peptide: PFEDFFGNRRGPR
notes: DnaJ homolog subfamily B member 6 (DNAJB6), residues 118-130; holds a partial DFx{2,3}R motif; also called DnaJ homolog subfamily B member 6; source: alanine scan: INTAVIS
As to B5, the binding result in assay [3] was “binds”.

B6: Cadherin-1 863-877 peptide, cellulose-bound (SPOT array) (peptide, UniProt P12830 863-877, looked up)
peptide: NEWGNRFKKLADMYG
notes: cadherin-1 (CDH1), residues 863-877; holds an RFxxL motif; also called CDH1_(863 − 877); source: alanine scan: INTAVIS
As for B6, the binding result in assay [3] was “binds”.

B7: TET3 1705-1720 peptide, unlabelled, synthetic (peptide)
peptide: GLALWEAKMKQLAERA
notes: source: synthetic peptide (GeneCust, >95% purity)
For B7, the affinity in assay [2], expressed as Kd, was 33 ± 9 µM.

B8: FITC-TET3 1705-1720 peptide (Methylcytosine dioxygenase TET3) (peptide)
peptide: {FITC}-GLALWEAKMKQLAERA
notes: also called probe peptide; source: synthetic peptide, bought: GeneCust (France), > 95% purity
As for B8, in the assay with USP8 Rhod (174–317), the Kd (usually a measure of binding affinity in units of concentration) was determined as 0.7 µM.

Values taken from paper PMC12057046, “Elucidation of short linear motif-based interactions of the MIT and rhodanese domains of the ubiquitin-specific protease 8” (Biology Direct, 2025).
